Reference: patent US20260235593A1, “FRET BIOSENSOR RECOMBINANT PROTEINS” (The Regents of the University of California, priority 2023, published 2026)

Tests used:
Format in all cases: cell-based
PKA [1] = assay: HaloTag-based FluoSTEP-AKAR co-expressed with FP11-Actin in HeLa cells, Fsk/IBMX stimulation
Text: Recently, anew biosensor design was developed using self-complementing split green FP (GFP) as the FRET donor. The self-complementation allowed the biosensors to be recruited and reconstituted at proteins of interest (POI) endogenously tagged with the FPs eleventh-strand (FP11). This allowed researchers to monitor compartmentalized signaling within endogenous microdomains without overexpressing the POI^[11]. However, this concept, fluorescent biosensors targeted to endogenous proteins (FluoSTEPs), suffers from two major limitations: low dynamic range and low brightness^[11]. Given the promising dynamic range achieved using HaloTag^(JF669) as a FRET acceptor in KARs, we decided to introduce HaloTag into FluoSTEP-AKAR. We replaced mRuby2 in FluoSTEP-AKAR with HaloTag and additionally introduced the EV linker to further increase the dynamic range. In order to address the limitation of low brightness of sfGFP as a FRET donor, we tested the use of two different split mNeonGreen (mNG) versions: split mNeonGreen2 (mNG2)^[22] and split mNeonGreen3A (mNG3A)[^21] in parallel (FIG. 8A). We co-expressed the generated biosensors with FP11-Actin in HeLa cells and used Fsk and IBMX to stimulate the reporters to monitor PKA signal. […] Consistent with previous results biosensors with HaloTag at the C-terminus performed best. […]

PKA [2] = assay: FluoSTEP-AKAR in HeLa cells endogenously expressing mNG11 (knock-in), Fsk/IBMX treatment; settings: HeLa-mNG11-β-Actin, HeLa-mNG11-clathrin and HeLa-mNG11-ezrin cells; 50 M Fsk and 100 μM IBMX
Procedure: Using our enhanced HaloTag-based FluoSTEPs mNG3A(1-10)-FHA1-xx aa EV linker-PKA substrate-HaloTag^(JF669) (xx=220 and 116 aa) we measured PKA activation upon treatment with 50 M Fsk and 100 μM IBMX in HeLa cells endogenously expressing mNG11 at different locations (CRISPER-mediated knock-in).

ERK = assay: Multiplexed biosensor imaging in HEK293T cells: ERK activity (yellow/far-red HaloTag-EKAR); settings: HEK293T cells co-expressing yellow/far-red HaloTag-EKAR and red/far-red HaloTag-AKAR; 100 ng/mL hEGF
Procedure: (§1) Cell culture and transfection HeLa and HEK293T cells were cultured in Dulbecco's modified Eagle medium (DMEM; Gibco) containing glucose (1 g/L) and supplemented with 10% (v/v) fetal bovine serum (Sigma-Aldrich) and 1% (v/v) penicillin-streptomycin (Pen-Strep; Sigma-Aldrich). NIH3T3 cells were cultured in DMEM (Gibco) containing glucose (1 g/L) and supplemented with 10% (v/v) fetal calf serum and 1% (v/v) Pen-Strep (Sigma-Aldrich). All cells were maintained in a humidified incubator at 37° C. with a 5% CO2 atmosphere. Before transfection, cells were plated onto sterile quartered 35-mm glass-bottomed dishes and grown to 50 to 70% confluence. Cells were then transfected using Lipofectamine 2000 (Invitrogen, HeLa) or PolyJet (SignaGen Laboratories, HEK293T and NIH3T3) and grown an additional 48 hours (HeLa, HEK293T) before imaging. NIH3T3 cells were changed to serum-free DMEM immediately before transfection, medium was changed to complete medium after 6 h. NIH3T3 cells were then serum-starved for 24 hours before imaging. HaloTag labeling was performed 24 h before imaging using synthetic fluorophores (Fluorophore-CA 500 nM, 24 h, 37° C.) in the respective medium. Synthetic fluorophores were kindly provided by Luke Lavis (Janelia Research Campus, JF669-CA, JFX646-CA and JF635) or Kai Johnsson (Max Planck Institute for Medical Research (Germany) and EPFL (Switzerland), NGD-CA). […]

PKA [3] = biological target: T1, PKA (Homo sapiens, UniProt P17612); assay: Multiplexed biosensor imaging in HEK293T cells: PKA activity (red/far-red HaloTag-AKAR); settings: HEK293T cells co-expressing yellow/far-red HaloTag-EKAR and red/far-red HaloTag-AKAR; 100 ng/mL hEGF; Fsk and 100 μM IBMX together; M H89
T1 construct: endogenous in cells; host or cells: HEK293T; only the biosensors are transfected
Procedure: as §1

B1: mNG3A(1-10)-FHA1-EV linker-PKA substrate-HaloTag^(JF669): enhanced FluoSTEP-AKAR: split mNG3A donor, HaloTag^(JF669) acceptor, 116 aa EV linker (protein)
chain: MVSKGEEDNMASLPATHELHIFGSINGVDFDMVGQGTGNPNDGYEELNLKSTKGDLQFSPWILVPHIGYGFHQYLPYPDGMSPFQAAMVDGSGYQVHRTMQFEDGASLTVNYRYTYEGSHIKGEAQVMGTGFPADGPVMTNTLTAADLCVSKMTYPNDKTIISTFKWSYTTVNGKRYRSTARTTYTFAKPMAAKYLKNQPMYVLRKTELKHSMWTFGRNPACDYHLGNISRLSNKHFQILLGEDGNLLLNDISTNGTWLNGQKVSAGGSAGGSAGGSAGGSAGGSGSAGGSAGGSTSAGGSAGGSAGGSAGGSAGGSGSAGGSAGGSTSAGGSAGGSAGGSAGGSAGGSGSAGGSAGGSTSAGGSAGGSAGGSAGGSAGGLRRATLVDGGTGGSELMGSEIGTGFPFDPHYVEVLGERMHYVDVGPRDGTPVLFLHGNPTSSYVWRNIIPHVAPTHRCIAPDLIGMGKSDKPDLGYFFDDHVRFMDAFIEALGLEEVVLVIHDWGSALGFHWAKRNPERVKGIAFMEFIRPIPTWDEWPEFARETFQAFRTTDVGRKLIIDQNVFIEGTLPMGVVRPLTEVEMDHYREPFLNPVDREPLWRFPNELPIAGEPANIVALVEEYMDWLHQSPVPKLLFWGTPGVLIPPAEAARLAKSLPNCKAVDIGPGLNLLQEDNPDLIGSEIARWLSTLEISG
With B1 the “increase when stimulated (dynamic range)” value (PKA [1]; HeLa cells co-expressing FP11-Actin, Fsk and IBMX, HaloTag labeled with JF669, mean±SEM) was 71.1%±3.1%, the “dynamic range relative to the conventional FluoSTEP” value (PKA [1]; same experimental conditions, conventional FluoSTEP-AKAR of reference [11]) was “about 8 times” and the “response (PKA activation) compared between EV linker lengths” value (PKA [2]) was “diminished response compared to the sensor with the 220 aa EV linker”.

B2: hEGF: human epidermal growth factor (protein, UniProt P01133 23-1207, looked up)
Pro-epidermal growth factor: PQHWSCPEGTLAGNGNSTCVGPAPFLIFSHGNSIFRIDTEGTNYEQLVVDAGVSVIMDFHYNEKRIYWVDLERQLLQRVFLNGSRQERVCNIEKNVSGMAINWINEEVIWSNQQEGIITVTDMKGNNSHILLSALKYPANVAVDPVERFIFWSSEVAGSLYRADLDGVGVKALLETSEKITAVSLDVLDKRLFWIQYNREGSNSLICSCDYDGGSVHISKHPTQHNLFAMSLFGDRIFYSTWKMKTIWIANKHTGKDMVRINLHSSFVPLGELKVVHPLAQPKAEDDTWEPEQKLCKLRKGNCSSTVCGQDLQSHLCMCAEGYALSRDRKYCEDVNECAFWNHGCTLGCKNTPGSYYCTCPVGFVLLPDGKRCHQLVSCPRNVSECSHDCVLTSEGPLCFCPEGSVLERDGKTCSGCSSPDNGGCSQLCVPLSPVSWECDCFPGYDLQLDEKSCAASGPQPFLLFANSQDIRHMHFDGTDYGTLLSQQMGMVYALDHDPVENKIYFAHTALKWIERANMDGSQRERLIEEGVDVPEGLAVDWIGRRFYWTDRGKSLIGRSDLNGKRSKIITKENISQPRGIAVHPMAKRLFWTDTGINPRIESSSLQGLGRLVIASSDLIWPSGITIDFLTDKLYWCDAKQSVIEMANLDGSKRRRLTQNDVGHPFAVAVFEDYVWFSDWAMPSVMRVNKRTGKDRVRLQGSMLKPSSLVVVHPLAKPGADPCLYQNGGCEHICKKRLGTAWCSCREGFMKASDGKTCLALDGHQLLAGGEVDLKNQVTPLDILSKTRVSEDNITESQHMLVAEIMVSDQDDCAPVGCSMYARCISEGEDATCQCLKGFAGDGKLCSDIDECEMGVPVCPPASSKCINTEGGYVCRCSEGYQGDGIHCLDIDECQLGEHSCGENASCTNTEGGYTCMCAGRLSEPGLICPDSTPPPHLREDDHHYSVRNSDSECPLSHDGYCLHDGVCMYIEALDKYACNCVVGYIGERCQYRDLKWWELRHAGHGQQQKVIVVAVCVVVLVMLLLLSLWGAHYYRTQKLLSKNPKNPYEESSRDVRSRRPADTEDGMSSCPQPWFVVIKEHQDLKNGGQPVAGEDGQAADGSMQPTSWRQEPQLCGMGTEQGCWIPVSSDKGSCPQVMERSFHMPSYGTQTLEGGVEKPHSLLSANPLWQQRALDPPHQMELTQ
modifications: Pro-epidermal growth factor
B2 was tested, and the ERK activity (ERK) was “increase in both ERK and PKA activity” and the PKA activity (PKA [3]) was “increase in both ERK and PKA activity”.
